Laboratory results reported in article PMC9536601.

Experiments:
[1] = biological target: chimeric hexon of the Ad5 vector Ad5:H1.1 (Ad5 hexon with residues 112-593 from Ad1 hexon, on virions) (human adenovirus 5 | human adenovirus 1) (UniProt P04133); assay: SPR; Biacore T200; about 300 to 5,000 RU of Ad virions immobilised on a CM5 chip, coagulation factors flowed over at four concentrations, 50 uL/min; running buffer 10 mM HEPES, 150 mM NaCl, 1 mM CaCl2, 0.5 mM MgCl2, 0.1% BSA, 0.05% polysorbate 20, pH 7.4; regeneration with 3 mM EDTA; global fit to a 1:1 kinetic interaction model, double referencing
[2] = biological target: hexon of the Ad5 vector Ad5.4 (HVR7 mutant, on virions) (human adenovirus 5) (UniProt P04133); assay: as above
[3] = biological target: chimeric hexon of the Ad5 vector Ad5:H57.1 (Ad5 hexon with residues 112-593 from Ad57 hexon, on virions) (human adenovirus 5 | human adenovirus 57) (UniProt P04133); assay: as above
[4] = biological target: hexon of wild-type human adenovirus type 1 (on virions) (human adenovirus 1); assay: as above
[5] = biological target: chimeric hexon of Ad5:H6.2 (Ad5 vector, hexon residues 112-593 from Ad6 hexon, HVR7 IGNTDTF), on the virion (human adenovirus type 5 | human adenovirus type 6) (UniProt P04133); assay: SPR; Biacore T200; about 300 to 5,000 RU of Ad virions immobilised on a CM5 chip, coagulation factors flowed over at four concentrations, 50 uL/min; 10 mM HEPES, 150 mM NaCl, 1 mM CaCl2, 0.5 mM MgCl2, 0.1% BSA, 0.05% polysorbate 20, pH 7.4; global fit to a 1:1 kinetic interaction model, double referencing
[6] = biological target: chimeric hexon of Ad5:H6.3 (Ad5 vector, hexon residues 112-593 from Ad6 hexon, HVR7 IGNTETF), on the virion (human adenovirus type 5 | human adenovirus type 6) (UniProt P04133); assay: as above
[7] = biological target: chimeric hexon of Ad5:H6.4 (Ad5 vector, hexon residues 112-593 from Ad6 hexon, HVR7 IGITDAF), on the virion (human adenovirus type 5 | human adenovirus type 6) (UniProt P04133); assay: as above
[8] = biological target: chimeric hexon of the Ad5 vector Ad5:H6.4 (Ad6 hexon section with HVR7 mutations, on virions) (human adenovirus 5 | human adenovirus 6) (UniProt P04133); assay: SPR; Biacore T200; about 300 to 5,000 RU of Ad virions immobilised on a CM5 chip, coagulation factors flowed over at four concentrations, 50 uL/min; running buffer 10 mM HEPES, 150 mM NaCl, 1 mM CaCl2, 0.5 mM MgCl2, 0.1% BSA, 0.05% polysorbate 20, pH 7.4; regeneration with 3 mM EDTA; global fit to a 1:1 kinetic interaction model, double referencing
[9] = biological target: chimeric hexon of the Ad5 vector Ad5:H1.6 (Ad1 hexon section with HVR7 mutations, on virions) (human adenovirus 5 | human adenovirus 1) (UniProt P04133); assay: as above
[10] = biological target: chimeric hexon of the Ad5 vector Ad5:H6.2 (Ad6 hexon section with HVR7 mutations, on virions) (human adenovirus 5 | human adenovirus 6) (UniProt P04133); assay: as above

Work on “human coagulation factor X (from UniProt P00742 41-488) (natural protein)” yielded a Kd [1] of 300 nM, a koff [1] of 0.077 s⁻¹ and a kon [1] of 253000 M⁻¹ s⁻¹. It also gave a Kd [2] of 10 nM, a koff [2] of 0.000338 s⁻¹ and a kon [2] of 33900 M⁻¹ s⁻¹. It also gave a Kd [3] of 58 nM, a koff [3] of 0.00316 s⁻¹ and a kon [3] of 54300 M⁻¹ s⁻¹. The Kd [4] was 220 nM, the koff [4] was 0.0501 s⁻¹ and the kon [4] was 232000 M⁻¹ s⁻¹.
With “bovine coagulation factor X (from UniProt P00743 41-492) (natural protein)” the Kd [1] was 220 nM, the koff [1] was 0.0512 s⁻¹ and the kon [1] was 236000 M⁻¹ s⁻¹. The Kd [2] was 540 nM, the koff [2] was 0.147 s⁻¹ and the kon [2] was 274000 M⁻¹ s⁻¹. The Kd [3] was 28 nM, the koff [3] was 0.00342 s⁻¹ and the kon [3] was 121000 M⁻¹ s⁻¹. For the same substance, the Kd [4] was 160 nM, the koff [4] was 0.0381 s⁻¹ and the kon [4] was 232000 M⁻¹ s⁻¹.
“mouse prothrombin (coagulation factor II) (from UniProt P19221 44-618) (natural protein)” gave a Kd [5] of 560 nM, a Kd [6] of 1600 nM and a Kd [7] of 32000 nM. It also gave a Kd [1] of 16 nM, a koff [1] of 0.00118 s⁻¹ and a kon [1] of 71600 M⁻¹ s⁻¹. For the same substance, the Kd [2] was 36000 nM, the koff [2] was 0.281 s⁻¹ and the kon [2] was 7770 M⁻¹ s⁻¹. For the same substance, the Kd [3] was 10 nM, the koff [3] was 0.00031 s⁻¹ and the kon [3] was 29800 M⁻¹ s⁻¹. It also gave a Kd [8] of 32000 nM, a koff [8] of 0.563 s⁻¹ and a kon [8] of 17800 M⁻¹ s⁻¹. The Kd [4] was 14 nM, the koff [4] was 0.000687 s⁻¹ and the kon [4] was 49800 M⁻¹ s⁻¹. The koff [9] was 1.41 s⁻¹, the Kd [10] was 560 nM and the koff [10] was 0.012 s⁻¹. For the same substance, the kon [10] was 21300 M⁻¹ s⁻¹.
“mouse coagulation factor X (from UniProt O88947 41-481) (natural protein)” showed a Kd [5] of 681 nM, a Kd [6] of 1200 nM and a Kd [7] of 95 nM. The Kd [1] was 0.82 nM, the koff [1] was 0.000372 s⁻¹ and the kon [1] was 454000 M⁻¹ s⁻¹. The Kd [2] was 1.9 nM, the koff [2] was 0.000479 s⁻¹ and the kon [2] was 248000 M⁻¹ s⁻¹. It also gave a Kd [3] of 0.65 nM, a koff [3] of 9.23e-05 s⁻¹ and a kon [3] of 143000 M⁻¹ s⁻¹. For the same substance, the Kd [8] was 95 nM, the koff [8] was 0.0169 s⁻¹ and the kon [8] was 178000 M⁻¹ s⁻¹. It also gave a Kd [4] of 0.31 nM, a koff [4] of 7.73e-05 s⁻¹ and a kon [4] of 253000 M⁻¹ s⁻¹. For the same substance, the Kd [9] was 4200 nM, the koff [9] was 0.638 s⁻¹ and the kon [9] was 152000 M⁻¹ s⁻¹. The Kd [10] was 681 nM, the koff [10] was 0.121 s⁻¹ and the kon [10] was 178000 M⁻¹ s⁻¹.
